The data set concerns the target T1, His-MIF (His-tag/T7 gene 10 leader/Xpress-MIF fusion) (UniProt P14174 P14174:1-115).
T1 chain: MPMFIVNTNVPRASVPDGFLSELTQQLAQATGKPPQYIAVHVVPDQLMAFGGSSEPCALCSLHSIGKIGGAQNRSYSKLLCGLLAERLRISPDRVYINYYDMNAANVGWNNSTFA
The data set can be described thus: SPR; data not shown. As to conditions: MIF 115 aa; ATGen. On the technique in general: In SPR one partner is held on a chip, and binding of the other changes the refractive index at the surface.

B1: X region SEQ 2329 (ssRNA)
RNA: GGGACGCUCACGUACGCUCAAAACCUGUGCUGAUCGCUGUUGGACAGUUCUACAUGCGCAUCAGUGCCUGGACGUGCAGU
modifications: 3' A20 tail for capture
In the case of B1, the binding result is recorded as “binds”.

B2: X region SEQ 2317 (ssRNA)
RNA: GGGACGCUCACGUACGCUCAGGUUGAUCCCGUUCUUCUUGACUGGCGCCUUCAUGGAGUGUCAGUGCCUGGACGUGCAGU
modifications: 3' A20 tail for capture
For B2, the binding result is “binds”.

B3: X region SEQ 2322 (ssRNA)
RNA: GGGACGCUCACGUACGCUCAGUUGGUUGCUGUGCAGUCUGGGUGUCUUGGCUUUCGGAUGUCAGUGCCUGGACGUGCAGU
modifications: 3' A20 tail for capture
In the case of B3, the binding result is “binds”.

B4: X region SEQ 2320 (ssRNA)
RNA: GGGACGCUCACGUACGCUCAGACGUUCAAGUAAAUUGGCCCUAUAUUUCGUUAUAGUAUGUCAGUGCCUGGACGUGCAGU
modifications: 3' A20 tail for capture
With B4, the binding result is given as “binds”.

B5: X region SEQ 2335 (ssRNA)
RNA: GGGACGCUCACGUACGCUCACAGGCUGAUCGCUUCUUUACGUCUAAGUAUUGACUUUAGCUCAGUGCCUGGACGUGCAGU
modifications: 3' A20 tail for capture
For B5, the binding result is given as “binds”.

B6: X region SEQ 2342 (ssRNA)
RNA: GGGACGCUCACGUACGCUCAUGACAUCUGAGGCUUUUUUCUUGGGGAAUUUUCCGAGACCUCAGUGCCUGGACGUGCAGU
modifications: 3' A20 tail for capture
B6: the binding result is given as “binds”.

B7: X region SEQ 2313 (ssRNA)
RNA: GGGACGCUCACGUACGCUCAGGUGUACUGUAACCUGCCUGCCACCUGCGGCUUCGCGGACUCAGUGCCUGGACGUGCAGU
modifications: 3' A20 tail for capture
B7: the binding result is listed as “binds”.

B8: X region SEQ 2336 (ssRNA)
RNA: GGGACGCUCACGUACGCUCAUCGAUUAGAAUACUCUUUGUGCGCCGUCGGCCUGAUCGUUCAGUGCCUGGACGUGCAGU
modifications: 3' A20 tail for capture
Turning to B8, the binding result is “binds”.

B9: X region SEQ 2321 (ssRNA)
RNA: GGGACGCUCACGUACGCUCAGCACUGCUUACGGGGUCUCCGGCAGUAUGCCCUGGUGUAUUCAGUGCCUGGACGUGCAGU
modifications: 3' A20 tail for capture
On to B9, for which the binding result is recorded as “binds”.

B10: X region SEQ 2327 (ssRNA)
RNA: GGGACGCUCACGUACGCUCAAGACUCCUGUGUUUCGGGUGUACUGUCACGAUUCGUUGUCUCAGUGCCUGGACGUGCAGU
modifications: 3' A20 tail for capture
B10: the binding result is “binds”.

B11: X region SEQ 2347 (ssRNA)
RNA: GGGACGCUCACGUACGCUCAUUUUUCCUCUUUGCCCUAUGUUUGGGCGACGCAUCCGGGUUCAGUGCCUGGACGUGCAGU
modifications: 3' A20 tail for capture
On to B11, for which the binding result was “binds”.

B12: X region SEQ 2328 (ssRNA)
RNA: GGGACGCUCACGUACGCUCAAAUUGUCUUCGCGUUGUCUUGAAUGGGUAAUAGUAGACGAUCAGUGCCUGGACGUGCAGU
modifications: 3' A20 tail for capture
In the case of B12, the binding result is “binds”.

B13: X region SEQ 2340 (ssRNA)
RNA: GGGACGCUCACGUACGCUCAUGUAUUUCUGUUAGUGCUCGGUCCUGCUGAUCGGUUAGACUCAGUGCCUGGACGUGCAGU
modifications: 3' A20 tail for capture
Regarding B13, the binding result is given as “binds”.

B14: X region SEQ 2325 (ssRNA)
RNA: GGGACGCUCACGUACGCUCAUACUUCCGGGUGUACUGUAAGCCCUACGCUGGAGGGGCUCUCAGUGCCUGGACGUGCAGU
modifications: 3' A20 tail for capture
On to B14, for which the binding result is “binds”.

B15: X region SEQ 2333 (ssRNA)
RNA: GGGACGCUCACGUACGCUCAAAUGACCCCGAUUCCCCUUUCGUGUUGUCUGAUCGCAGGCUCAGUGCCUGGACGUGCAGU
modifications: 3' A20 tail for capture
Turning to B15, the binding result is “binds”.

B16: X region SEQ 2334 (ssRNA)
RNA: GGGACGCUCACGUACGCUCACACCUAGAGCCUGAACUGCCUAAGCGCUGAUCGGCAUUUAUCAGUGCCUGGACGUGCAGU
modifications: 3' A20 tail for capture
Take B16: the binding result is on record as “binds”.

B17: X region SEQ 2332 (ssRNA)
RNA: GGGACGCUCACGUACGCUCAUUAGACGUUCUCUACGUCCGUGCCGCCCUGAUCGAGCGACUCAGUGCCUGGACGUGCAGU
modifications: 3' A20 tail for capture
In the case of B17, the binding result is on record as “binds”.

B18: X region SEQ 2344 (ssRNA)
RNA: GGGACGCUCACGUACGCUCAGUCCAUUUUCGUCGUGUAAUUUCGGCAACGGUUCCGGGGAUCAGUGCCUGGACGUGCAGU
modifications: 3' A20 tail for capture
B18: the binding result is given as “binds”.

B19: X region SEQ 2343 (ssRNA)
RNA: GGGACGCUCACGUACGCUCACUGUGCUCGGAUUUCAUCCGGGUCCUAUACUUCUACUAUAUCAGUGCCUGGACGUGCAGU
modifications: 3' A20 tail for capture
For the molecule B19, the binding result is “binds”.

B20: X region SEQ 2319 (ssRNA)
RNA: GGGACGCUCACGUACGCUCAAAAGUUUUGCACGUUCUCCCGGUGUCCUGGCGCUUGGCUGUCAGUGCCUGGACGUGCAGU
modifications: 3' A20 tail for capture
In the case of B20, the binding result was “binds”.

B21: X region SEQ 2315 (ssRNA)
RNA: GGGACGCUCACGUACGCUCAACCCGCGACUAGGUUUUCCUGGCGACCGUCCGGUAGUGUCAGUGCCUGGACGUGCAGU
modifications: 3' A20 tail for capture
As for B21, the binding result is listed as “binds”.

B22: X region SEQ 2309 (ssRNA)
RNA: GGGACGCUCACGUACGCUCACUGGGCGACUAGGUGUACUGGCUAUCACGUUCUGGAUAAGUCAGUGCCUGGACGUGCAGU
modifications: 3' A20 tail for capture
Consider B22, for which the binding result is “binds”.

B23: X region SEQ 2323 (ssRNA)
RNA: GGGACGCUCACGUACGCUCACUACAAUAAUAUUACCCCUUGUUUUCGUUUAGUCCGGGUUUCAGUGCCUGGACGUGCAGU
modifications: 3' A20 tail for capture
As for B23, the binding result was “binds”.

B24: X region SEQ 2338 (ssRNA)
RNA: GGGACGCUCACGUACGCUCAUGAGACUGAUCGUGACAACUCCUGUAUGUUCGAUCUCAUCUCAGUGCCUGGACGUGCAGU
modifications: 3' A20 tail for capture
As to B24, the binding result is listed as “binds”.

B25: X region SEQ 2316 (ssRNA)
RNA: GGGACGCUCACGUACGCUCACAACUUGUAUUGUCCGGGUGUACUGUACCGAAACUCGUGAUCAGUGCCUGGACGUGCAGU
modifications: 3' A20 tail for capture
With B25, the binding result is “binds”.

B26: X region SEQ 2324 (ssRNA)
RNA: GGGACGCUCACGUACGCUCAUGGUGUACUGUACCUAUUCGACACUUCUGUUGAUUAGUGAUCAGUGCCUGGACGUGCAGU
modifications: 3' A20 tail for capture
For B26, the binding result is “binds”.

B27: X region SEQ 2310 (ssRNA)
RNA: GGGACGCUCACGUACGCUCAUGGUGGAUUGGUGCAUCUAUGUCUUCUUACUUGUUAUCAGUGCCUGGACGUGCAGU
modifications: 3' A20 tail for capture
Turning to B27, the binding result is “binds”.

B28: X region SEQ 2341 (ssRNA)
RNA: GGGACGCUCACGUACGCUCAUGUCCGCUGUUAAAGAUCGCGACUCUGGGCCCUGAUCGAUUCAGUGCCUGGACGUGCAGU
modifications: 3' A20 tail for capture
In the case of B28, the binding result was “binds”.

B29: X region SEQ 2346 (ssRNA)
RNA: GGGACGCUCACGUACGCUCAUGUUCCGGGCCGACUGGCUGUUAGAGAUCUCUGAUGUAGGUCAGUGCCUGGACGUGCAGU
modifications: 3' A20 tail for capture
In the case of B29, the binding result is reported as “binds”.

B30: X region SEQ 2337 (ssRNA)
RNA: GGGACGCUCACGUACGCUCAUCGUCGUAGGCGUACUGAUCGAAUCGUACUUACUAUUGCGUCAGUGCCUGGACGUGCAGU
modifications: 3' A20 tail for capture
Consider B30, for which the binding result was “binds”.

B31: X region SEQ 2311 (ssRNA)
RNA: GGGACGCUCACGUACGCUCAAGACGGUGUACUGGCACUUUUACUUCAUUGAGUAGAAAUUCGUCAGUGCCUGGACGUGCAGU
modifications: 3' A20 tail for capture
Turning to B31, the binding result is listed as “binds”.

B32: X region SEQ 2330 (ssRNA)
RNA: GGGACGCUCACGUACGCUCACGCUUUAAUGAUCUGAUCGUGCUUCGCUGCGUAGUAUUGGUCAGUGCCUGGACGUGCAGU
modifications: 3' A20 tail for capture
Take B32: the binding result was “binds”.

B33: X region SEQ 2318 (ssRNA)
RNA: GGGACGCUCACGUACGCUCAACUCCCUCUUUCGCGGGCUCCUUUCCGCAACACGACUGGCUCAGUGCCUGGACGUGCAGU
modifications: 3' A20 tail for capture
Turning to B33, the binding result was “binds”.

B34: X region SEQ 2345 (ssRNA)
RNA: GGGACGCUCACGUACGCUCAUAUGUUCGACUUAAUUUGAUCUGCAUGUUUGUCUCCGGGCUCAGUGCCUGGACGUGCAGU
modifications: 3' A20 tail for capture
Consider B34, for which the binding result is “binds”.

B35: X region SEQ 2339 (ssRNA)
RNA: GGGACGCUCACGUACGCUCAUGCUGAUCGUUCGGUGAAUCAUUUCCUUACCUACCUACGUUCAGUGCCUGGACGUGCAGU
modifications: 3' A20 tail for capture
In the case of B35, the binding result was “binds”.

B36: X region SEQ 2314 (ssRNA)
RNA: GGGACGCUCACGUACGCUCAAACUUGAUCCUGGUUUCCAGCAGUAUGCCGCGUGAUUUCGUCAGUGCCUGGACGUGCAGU
modifications: 3' A20 tail for capture
Turning to B36, the binding result is “binds”.

B37: X region SEQ 2331 (ssRNA)
RNA: GGGACGCUCACGUACGCUCAGAGUCGUUAUCUCCUGUACUAAUCACCUACUGAUCGAGCAUCAGUGCCUGGACGUGCAGU
modifications: 3' A20 tail for capture
Take B37: the binding result is “binds”.

B38: X region SEQ 2326 (ssRNA)
RNA: GGGACGCUCACGUACGCUCAGGCUACUGGUCAGAGGUUUCCAGCAGAUUUCCUGCCUAAAUCAGUGCCUGGACGUGCAGU
modifications: 3' A20 tail for capture
Turning to B38, the binding result is on record as “binds”.

These data come from patent US20120129720, “APTAMER THAT RECOGNIZES PEPTIDE” (KANAGAWA PREFECTURAL HOSPITAL ORGANIZATION, published 2012).
